B1: HEEH_KT_rd6_0790 (parent)
chain: SEEEEEEWRRAKERGEEIIILGILWKPNDEEAERRIKEALRRV

Variants of: B1
Experiment: folding stability dG (cDNA display proteolysis); higher = more stable
Conditions: PBS, room temperature

Variant	folding stability dG
SEEEEEEWRRAKERGEEIIILGILWKPQDEEAERRIKEALRRV	1.82 kcal/mol
SEEEEEEWRRAKERGEEIIILGILWKPPDEEAERRIKEALRRV	1.34 kcal/mol
SEEEEEEWRRAKERGEEIIILGILWKPTDEEAERRIKEALRRV	1.38 kcal/mol
SEEEEEEWRRAKERGEEIIILGILWKPWDEEAERRIKEALRRV	2.05 kcal/mol
SEEEEEEWRRAKERGEEIIILGILWKPIDEEAERRIKEALRRV	0.872 kcal/mol
SEEEEEEWRRAKERGEEIIILGILWKPHDEEAERRIKEALRRV	1.97 kcal/mol
SEEEEEEWRRAKERGEEIIILGILWKPRDEEAERRIKEALRRV	1.71 kcal/mol
SEEEEEEWRRAKERGEEIIILGILWKPYDEEAERRIKEALRRV	1.9 kcal/mol
SEEEEEEWRRAKERGEEIIILGILWKPMDEEAERRIKEALRRV	1.77 kcal/mol
SEEEEEEWRRAKERGEEIIILGILWKPVDEEAERRIKEALRRV	1.1 kcal/mol
SEEEEEEWRRAKERGEEIIILGILWKPLDEEAERRIKEALRRV	1.61 kcal/mol
SEEEEEEWRRAKERGEEIIILGILWKPADEEAERRIKEALRRV	1.67 kcal/mol
SEEEEEEWRRAKERGEEIIILGILWKPGDEEAERRIKEALRRV	2.81 kcal/mol
SEEEEEEWRRAKERGEEIIILGILWKPEDEEAERRIKEALRRV	1.84 kcal/mol
SEEEEEEWRRAKERGEEIIILGILWKPDDEEAERRIKEALRRV	2.19 kcal/mol
SEEEEEEWRRAKERGEEIIILGILWKPSDEEAERRIKEALRRV	1.62 kcal/mol
SEEEEEEWRRAKERGEEIIILGILWKPFDEEAERRIKEALRRV	2.1 kcal/mol
SEEEEEEWRRAKERGEEIIILGILWKPKDEEAERRIKEALRRV	1.45 kcal/mol
SEEEEEEWRRAKERGEEIIILGILWKVNDEEAERRIKEALRRV	1.2 kcal/mol
SEEEEEEWRRAKERGEEIIILGILWKYNDEEAERRIKEALRRV	1.22 kcal/mol
SEEEEEEWRRAKERGEEIIILGILWKWNDEEAERRIKEALRRV	1.42 kcal/mol
SEEEEEEWRRAKERGEEIIILGILWKPNDMEAERRIKEALRRV	2.24 kcal/mol
SEEEEEEWRRAKERGEEIIILGILWKPNDHEAERRIKEALRRV	2.06 kcal/mol
SEEEEEEWRRAKERGEEIIILGILWKPNDREAERRIKEALRRV	1.81 kcal/mol

Variant	folding stability dG
SEEEEEEWRRAKERGEEIIILGILWKPNDIEAERRIKEALRRV	2.17 kcal/mol
SEEEEEEWRRAKERGEEIIILGILWKPNDPEAERRIKEALRRV	2.04 kcal/mol
SEEEEEEWRRAKERGEEIIILGILWKPNDQEAERRIKEALRRV	1.94 kcal/mol
SEEEEEEWRRAKERGEEIIILGILWKPNDYEAERRIKEALRRV	2.13 kcal/mol
SEEEEEEWRRAKERGEEIIILGILWKPNDDEAERRIKEALRRV	2.25 kcal/mol
SEEEEEEWRRAKERGEEIIILGILWKPNDFEAERRIKEALRRV	2.05 kcal/mol
SEEEEEEWRRAKERGEEIIILGILWKPNDSEAERRIKEALRRV	1.83 kcal/mol
SEEEEEEWRRAKERGEEIIILGILWKPNDKEAERRIKEALRRV	1.93 kcal/mol
SEEEEEEWRRAKERGEEIIILGILWKPNDGEAERRIKEALRRV	1.78 kcal/mol
SEEEEEEWRRAKERGEEIIILGILWKPNDAEAERRIKEALRRV	2.03 kcal/mol
SEEEEEEWRRAKERGEEIIILGILWKPNDWEAERRIKEALRRV	1.94 kcal/mol
SEEEEEEWRRAKERGEEIIILGILWKPNDNEAERRIKEALRRV	1.83 kcal/mol
SEEEEEEWRRAKERGEEIIILGILWKPNDVEAERRIKEALRRV	2.04 kcal/mol
SEEEEEEWRRAKERGEEIIILGILWKPNDLEAERRIKEALRRV	2.28 kcal/mol
SEEEEEEWRRAKERGEEIIILGILWKPNDTEAERRIKEALRRV	1.9 kcal/mol
SEEEEEEWRRAKERGEEIIILGILWKPNDEEAPRRIKEALRRV	0.529 kcal/mol
SEEEEEEWRRAKERGEEIIILGILWKPNDEEALRRIKEALRRV	1.7 kcal/mol
SEEEEEEWRRAKERGEEIIILGILWKPNDEEAARRIKEALRRV	1.72 kcal/mol
SEEEEEEWRRAKERGEEIIILGILWKPNDEEARRRIKEALRRV	1.29 kcal/mol
SEEEEEEWRRAKERGEEIIILGILWKPNDEEAGRRIKEALRRV	1.49 kcal/mol
SEEEEEEWRRAKERGEEIIILGILWKPNDEEAMRRIKEALRRV	1.7 kcal/mol
SEEEEEEWRRAKERGEEIIILGILWKPNDEEANRRIKEALRRV	1.61 kcal/mol
SEEEEEEWRRAKERGEEIIILGILWKPNDEEASRRIKEALRRV	1.68 kcal/mol
SEEEEEEWRRAKERGEEIIILGILWKPNDEEAVRRIKEALRRV	1.52 kcal/mol

Variant	folding stability dG
SEEEEEEWRRAKERGEEIIILGILWKPNDEEAWRRIKEALRRV	1.99 kcal/mol
SEEEEEEWRRAKERGEEIIILGILWKPNDEEAIRRIKEALRRV	1.49 kcal/mol
SEEEEEEWRRAKERGEEIIILGILWKPNDEEADRRIKEALRRV	2.01 kcal/mol
SEEEEEEWRRAKERGEEIIILGILWKPNDEEAQRRIKEALRRV	1.31 kcal/mol
SEEEEEEWRRAKERGEEIIILGILWKPNDEEAFRRIKEALRRV	1.66 kcal/mol
SEEEEEEWRRAKERGEEIIILGILWKPNDEEAHRRIKEALRRV	1.3 kcal/mol
SEEEEEEWRRAKERGEEIIILGILWKPNDEEAKRRIKEALRRV	1.09 kcal/mol
SEEEEEEWRRAKERGEEIIILGILWKPNDEEAYRRIKEALRRV	1.71 kcal/mol
SEEEEEEWRRAKERGEEIIILGILWKPNDEEATRRIKEALRRV	1.98 kcal/mol
SEEEEEEWRRAKERGEEIIILGILWKPNDENAERRIKEALRRV	1.69 kcal/mol
SEEEEEEWRRAKERGEEIIILGILWKPNDEWAERRIKEALRRV	1.5 kcal/mol
SEEEEEEWRRAKERGEEIIILGILWKPNDEMAERRIKEALRRV	1.54 kcal/mol
SEEEEEEWRRAKERGEEIIILGILWKPNDESAERRIKEALRRV	1.69 kcal/mol
SEEEEEEWRRAKERGEEIIILGILWKPNDEYAERRIKEALRRV	1.56 kcal/mol
SEEEEEEWRRAKERGEEIIILGILWKPNDEPAERRIKEALRRV	0.967 kcal/mol
SEEEEEEWRRAKERGEEIIILGILWKPNDEAAERRIKEALRRV	1.79 kcal/mol
SEEEEEEWRRAKERGEEIIILGILWKPNDERAERRIKEALRRV	1.38 kcal/mol
SEEEEEEWRRAKERGEEIIILGILWKPNDEVAERRIKEALRRV	1.9 kcal/mol
SEEEEEEWRRAKERGEEIIILGILWKPNDELAERRIKEALRRV	1.69 kcal/mol
SEEEEEEWRRAKERGEEIIILGILWKPNDEGAERRIKEALRRV	1.61 kcal/mol
SEEEEEEWRRAKERGEEIIILGILWKPNDEKAERRIKEALRRV	1.32 kcal/mol
SEEEEEEWRRAKERGEEIIILGILWKPNDETAERRIKEALRRV	1.79 kcal/mol
SEEEEEEWRRAKERGEEIIILGILWKPNDEQAERRIKEALRRV	1.72 kcal/mol
SEEEEEEWRRAKERGEEIIILGILWKPNDEHAERRIKEALRRV	1.64 kcal/mol

Variant	folding stability dG
SEEEEEEWRRAKERGEEIIILGILWKPNDEIAERRIKEALRRV	1.8 kcal/mol
SEEEEEEWRRAKERGEEIIILGILWKPNDEDAERRIKEALRRV	2.14 kcal/mol
SEEEEEEWRRAKERGEEIIILGILWKPNDEFAERRIKEALRRV	1.49 kcal/mol
SEEEEEEWRRAKERGEEIIILGILWKPNDEEAECRIKEALRRV	2.5 kcal/mol
SEEEEEEWRRAKERGEEIIILGILWKPNDEEAEARIKEALRRV	2.22 kcal/mol
SEEEEEEWRRAKERGEEIIILGILWKPNDEEAEDRIKEALRRV	1.64 kcal/mol
SEEEEEEWRRAKERGEEIIILGILWKPNDEEAEERIKEALRRV	2.12 kcal/mol
SEEEEEEWRRAKERGEEIIILGILWKPNDEEAEHRIKEALRRV	1.73 kcal/mol
SEEEEEEWRRAKERGEEIIILGILWKPNDEEAEFRIKEALRRV	1.9 kcal/mol
SEEEEEEWRRAKERGEEIIILGILWKPNDEEAEGRIKEALRRV	1.63 kcal/mol
SEEEEEEWRRAKERGEEIIILGILWKPNDEEGERRIKEALRRV	1.2 kcal/mol
SEEEEEEWRRAKERGEEIIILGILWKPNDEEVERRIKEALRRV	1.37 kcal/mol
SEEEEEEWRRAKERGEEIIILGILWKPNDEEWERRIKEALRRV	1.02 kcal/mol
SEEEEEEWRRAKERGEEIIILGILWKPNDEEIERRIKEALRRV	1.39 kcal/mol
SEEEEEEWRRAKERGEEIIILGILWKPNDEEMERRIKEALRRV	1.26 kcal/mol
SEEEEEEWRRAKERGEEIIILGILWKPNDEEDERRIKEALRRV	0.955 kcal/mol
SEEEEEEWRRAKERGEEIIILGILWKPNDEELERRIKEALRRV	1.41 kcal/mol
SEEEEEEWRRAKERGEEIIILGILWKPNDEENERRIKEALRRV	1.02 kcal/mol
SEEEEEEWRRAKERGEEIIILGILWKPNDEESERRIKEALRRV	1.96 kcal/mol
SEEEEEEWRRAKERGEEIIILGILWKPNDEEFERRIKEALRRV	0.917 kcal/mol
SEEEEEEWRRAKERGEEIIILGILWKPNDEEYERRIKEALRRV	1.07 kcal/mol
SEEEEEEWRRAKERGEEIIILGILWKPNDEEHERRIKEALRRV	0.931 kcal/mol
SEEEEEEWRRAKERGEEIIILGILWKPNDEEQERRIKEALRRV	1.07 kcal/mol
SEEEEEEWRRAKERGEEIIILGILWKPNDEEKERRIKEALRRV	0.96 kcal/mol

Variant	folding stability dG
SEEEEEEWRRAKERGEEIIILGILWKPNDEEEERRIKEALRRV	1.25 kcal/mol
SEEEEEEWRRAKERGEEIIILGILWKPNDEEPERRIKEALRRV	0.466 kcal/mol
SEEEEEEWRRAKERGEEIIILGILWKPNDEERERRIKEALRRV	1.12 kcal/mol
SEEEEEEWRRAKERGEEIIILGILWKPNDEETERRIKEALRRV	1.55 kcal/mol
SEEEEEEWRRAKERGEEIIILGILWKPNTEEAERRIKEALRRV	0.862 kcal/mol
SEEEEEEWRRAKERGEEIIILGILWKPNREEAERRIKEALRRV	1.19 kcal/mol
SEEEEEEWRRAKERGEEIIILGILWKPNIEEAERRIKEALRRV	0.872 kcal/mol
SEEEEEEWRRAKERGEEIIILGILWKPNNEEAERRIKEALRRV	1.39 kcal/mol
SEEEEEEWRRAKERGEEIIILGILWKPNLEEAERRIKEALRRV	1.01 kcal/mol
SEEEEEEWRRAKERGEEIIILGILWKPNWEEAERRIKEALRRV	1.55 kcal/mol
SEEEEEEWRRAKERGEEIIILGILWKPNPEEAERRIKEALRRV	1.09 kcal/mol
SEEEEEEWRRAKERGEEIIILGILWKPNHEEAERRIKEALRRV	1.28 kcal/mol
SEEEEEEWRRAKERGEEIIILGILWKPNYEEAERRIKEALRRV	1.24 kcal/mol
SEEEEEEWRRAKERGEEIIILGILWKPNQEEAERRIKEALRRV	1.34 kcal/mol
SEEEEEEWRRAKERGEEIIILGILWKPNVEEAERRIKEALRRV	1.25 kcal/mol
SEEEEEEWRRAKERGEEIIILGILWKPNGEEAERRIKEALRRV	1 kcal/mol
SEEEEEEWRRAKERGEEIIILGILWKPNAEEAERRIKEALRRV	1.25 kcal/mol
SEEEEEEWRRAKERGEEIIILGILWKPNKEEAERRIKEALRRV	0.951 kcal/mol
SEEEEEEWRRAKERGEEIIILGILWKPNFEEAERRIKEALRRV	1.28 kcal/mol
SEEEEEEWRRAKERGEEIIILGILWKPNEEEAERRIKEALRRV	1.06 kcal/mol
SEEEEEEWRRAKERGEEIIILGILWKPNMEEAERRIKEALRRV	1.05 kcal/mol
SEEEEEEWRRAKERGEEIIILGILWKPNSEEAERRIKEALRRV	1.42 kcal/mol
